In assay [1] the target is MMP-2 targeting peptide (FITC-AA-…). Nature of the assay: MST.
For assay [2], the system named is bovine serum albumin. Nature of the assay: MicroScale Thermophoresis. Format: binding. Particulars: MST, FITC-labelled peptide. (Microscale thermophoresis detects binding through changes in fluorescence in a small temperature gradient.)

We go through two molecules from PMC9733406 (ACS nano, 2022).

Residues, ends and D or L forms follow the SMILES beside them.

“recombinant human MMP-2 (from UniProt P08253 30-660) (enzyme)”: the Kd in assay [1] came to 82.8 nM. This counts as double-digit nanomolar. `CC[C@H](C)[C@H](NC(=O)[C@H](CC(=O)O)NC(=O)[C@H](CC(C)C)NC(=O)[C@H](Cc1ccccc1)NC(=O)[C@H](CCC(=O)O)NC(=O)[C@H](CCC(N)=O)NC(=O)[C@H](CCCCN)NC(=O)[C@@H]1CCCN1C(=O)[C@H](C)NC(=O)[C@H](C)NC(=O)CNC(=O)[C@H](CCCNC(=N)N)NC(=O)[C@H](C)NC(=O)[C@H](C)NC(=S)Nc1ccc2c(c1)C(=O)OC21c2ccc(O)cc2Oc2cc(O)ccc21)C(=O)N[C@@H](CCC(=O)O)C(N)=O` [MMP-2 targeting peptide] (HELM PEPTIDE1{[O=C1OC2(c3ccc(O)cc3Oc3cc(O)ccc32)c2ccc(NC(=S)[*:2])cc21].A.A.R.G.A.A.P.K.Q.E.F.L.D.I.E.[am]}$$$$V2.0): in assay [2], the “nonspecific binding to bovine serum albumin” value was “does not bind nonspecifically”.

One may read the Kd as the constant that tells how readily two partners part at equilibrium. Read a high Kd as a looser complex.
